One substance from patent publication US20150183835A1 can be followed below.

In assay [1] the target is HIV-1 SF162 gp120 (wild type, unmodified) (HIV-1 strain SF162) (UniProt P19550). The assay can be described thus: SPR BIAcore 3000, b12 amine-coupled on CM5, gp120 as analyte, 25 C, 1:1 Langmuir fit. In general terms: In SPR one partner is held on a chip, and binding of the other changes the refractive index at the surface.
Assay [2] has as its target disulfide-stabilized SF162 L1-SS-L2 gp120 (V59C & S109C) (HIV-1 strain SF162) (UniProt P19550). As to the kind of experiment: SPR BIAcore 3000, b12 amine-coupled on CM5, gp120 L1-SS-L2 as analyte, 25 C, 1:1 Langmuir fit.
The target is the same in assay [3]. The assay can be described thus: SPR BIAcore 3000, b12 immobilized; Kd compared with wild-type gp120.

By Kd is commonly meant the equilibrium constant for the complex coming apart. What is called koff is the rate constant with which the complex falls apart. The term kon denotes the rate constant with which the complex forms. The low end stands for slower complex formation, the high end for faster complex formation.

In assay [1], mAb b12 (antibody) came in with an equilibrium dissociation constant (Kd) of 44.8 nM, a koff of 0.00712 s⁻¹ and an on-rate (kon) of 165000 M⁻¹ s⁻¹. Further, in assay [2], the dissociation constant (Kd) amounted to 304 nM, the koff came to 0.00885 s⁻¹ and the kon was 29100 M⁻¹ s⁻¹. The fold difference in Kd against wild-type gp120 in assay [3] was under 7 fold.
